In patent publication EP4772624A1:

Molecular target: human IgG1 antibody against KLH (keyhole limpet hemocyanin)
Assay: cell-based or functional assay

wild-type IdeZ-mouse Fc fusion protein (from UniProt P01868 103-324)
cleavage of human IgG1 antibody (SDS-PAGE, reducing; 37 C, 2 h): highest concentration ratio of antibody to fusion protein at which cleavage was confirmed (times (antibody to fusion protein)): 33
